Like-named read-outs stand apart in the source and are kept apart here.
Assays:
[1] = target: T1, interleukin-1 receptor accessory protein (IL1RAP), antigen of the ELISA and phage selection (UniProt Q9NPH3 21-367, limits assumed); test: ELISA, scFv-Fc on IL1RAP
T1 sequence (looked up): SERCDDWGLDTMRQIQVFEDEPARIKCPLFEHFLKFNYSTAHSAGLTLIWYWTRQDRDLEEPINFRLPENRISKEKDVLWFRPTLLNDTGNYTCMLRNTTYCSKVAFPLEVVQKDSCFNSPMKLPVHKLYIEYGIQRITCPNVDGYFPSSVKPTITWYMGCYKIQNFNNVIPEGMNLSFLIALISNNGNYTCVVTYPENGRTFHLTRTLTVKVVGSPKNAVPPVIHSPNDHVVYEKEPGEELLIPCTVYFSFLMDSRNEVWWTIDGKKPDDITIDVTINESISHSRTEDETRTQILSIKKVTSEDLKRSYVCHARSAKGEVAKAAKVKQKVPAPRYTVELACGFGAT

[2] = target: T1, interleukin-1 receptor accessory …; test: ELISA, scFv-Fc on IL1RAP; remark: listed apart in the source
[3] = target: T2, interleukin-1 receptor accessory protein (IL1RAP) on AML target cells (human, UniProt Q9NPH3 21-570); test: cell-based or functional assay
T2 sequence (looked up): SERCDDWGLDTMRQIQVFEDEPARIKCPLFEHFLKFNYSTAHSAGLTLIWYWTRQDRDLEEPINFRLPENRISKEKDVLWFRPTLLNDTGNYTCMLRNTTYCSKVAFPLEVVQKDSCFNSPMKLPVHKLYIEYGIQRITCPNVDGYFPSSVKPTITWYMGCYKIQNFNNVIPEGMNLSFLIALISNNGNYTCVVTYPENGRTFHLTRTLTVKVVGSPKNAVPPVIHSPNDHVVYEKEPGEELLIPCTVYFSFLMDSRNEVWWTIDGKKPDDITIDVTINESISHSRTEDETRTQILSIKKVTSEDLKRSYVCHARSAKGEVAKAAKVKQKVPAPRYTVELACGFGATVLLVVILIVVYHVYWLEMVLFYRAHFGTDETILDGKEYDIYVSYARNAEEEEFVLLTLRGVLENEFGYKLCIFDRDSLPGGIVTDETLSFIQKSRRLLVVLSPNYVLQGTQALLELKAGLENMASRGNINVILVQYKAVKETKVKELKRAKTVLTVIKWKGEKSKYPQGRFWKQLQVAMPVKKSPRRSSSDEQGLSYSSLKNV

B1: anti-IL1RAP antibody clone 2E12 (Fc fusion)
VH: PGAAAGVGGGLVQPGGSLRLSCEASGFTFSRYWMHWVRQAPGKGLVWVSRIHTDGSSISYADSVKGRFTISRDNAKNTLYLQMNSLRAEDTAVYYCARDIGGGYSYGSVDYWGQGTLVTVSS
VL: QPVLTQSPSVSVAPGKTTRITCGGDNIGSKSVHWFQQKPGQAPVLVVFGGGDRPSGIPERFSGSNSGNTATLIISGVEGGDEADYYCQVWDGSTDHYIFGAGTMVTVL
notes: Tested as scFv-Fc
EC50 [1]: 85.4 µg/mL | EC50 [2]: 854 nM | cell lysis %-1 [3]: 27.2% | cell lysis %-2 [3]: 28.7% | cell lysis %-3 [3]: 23.7% | cell lysis %-average [3]: 26.5%
